Data as given in patent US20210261643A1, “INHIBITORS OF P-TEFB MEDIATED TRANSCRIPTION” (The Regents of the University of California, priority 2018, published 2021).

Key:
Format in all cases: cell-based
[1] = system: HEXIM1, a bona fide target of P-TEFb; test: HEXIM1 mRNA and protein expression in 293T cells; conditions: increasing amounts of m:HT1
Description: Since P-TEFb is a major transcription factor and regulates the expression of many cellular genes, we next assessed whether HT1 could impair host cell gene expression through inactivation of the kinase activity of CDK9. We first investigated how HT1 impacted the mRNA and protein expression levels of HEXIM1, a bona fide target of P-TEFb.

HIV-1 NL43 = test: Spreading infection with HIV-1 NL43, Gag p24 ELISA in supernatants; conditions: 4 dpi
Description: FIGS. 5A, 5B, 5C, and 5D. Stable expression of HT1 inhibits HIV replication. FIG. 5A. Stable expression of HT1 inhibits HIV-1 replication in C-HT cells. 1E+06 HT1-expressing CEM-HT cells and e control CEM cells were challenged by HIV-1 NL43 infection. FIG. 5B. Stable expression of HT1 inhibits HIV-1 replication in MO-HT cells. 1E+06 HT1-expressing MOLT4-HT cells, and control MOLT4 cells were challenged by HIV-1 NL43 infection. FIG. 5C. Stable expression of HT1 inhibits HIV-1 replication in MT-HT cells. 1E+06 HT1-expressing MT4-HT cells, and control MT4 cells were challenged by HIV-1 NL43 infection. In each of FIGS. 5A, 5B, and 5C, virus production was assessed by Gag p24 ELISA in supernatants when cells were passaged at days 0, 2 and 4, and plotted. Error bars represent standard deviation from triplicate experiments. FIG. 5D: Stable expression of HT1 doesn't inhibit early steps of HIV-1 infection in C-HT, MO-HT, and MT-HT cells. Single-round infection assays were performed in the same conditions as in FIG. 5A-C above, but using replication-defective HXB2 Env-pseudotyped HIV-1 NL43ΔenvLuc. The relative amount of HIV DNA integrated in the cells' genomic DNA was assessed after 24 h by qPCR. Error bars represent standard deviation from triplicate experiments.
On 2 dpi, virus production was detected from CEM, MOLT4 and MT4 cells and reached around 20 (CEM, MT4) to 110 (MOLT4) ng/mL p24 concentration in the supernatant on 4 dpi.

[2] = system: HIV reactivation in 2D10 cells; test: HIV reactivation in 2D10 latent infection model, FACS of GFP positive cells; conditions: D-HT cells, 24 hrs
Description: (§1) FIGS. 4A and 4B. Stable expression of HT1 inhibits HIV reactivation. FIG. 4A: Stable expression of HT1 inhibits HIV reactivation from 2D10 cells. 3f:HT1 was stably expressed in 2D10 cells (D-HT cells). […] Error bars represent standard deviation from triplicate FACS analysis. FIG. 4B: Stable expression of HT1 inhibits HIV reactivation from J-Lat 9.2 cells. 3f:HT1 was stably expressed in J-Lat 9.2 cells (L-HT cells). […] Error bars represent standard deviation from triplicate FACS analysis.
(§2) To test the effect of HT1 on HIV-1 in T-lymphocyte derived cells, 3f:HT1 was stably expressed in HIV latent infection models 2D10 and J-Lat 9.2 cells (D-HT and L-HT cells respectively), which carry replication-defective, GFP-flagged HIV proviruses. In both 2D10 and J-Lat 9.2, the basal HIV transcription level is undetectable, as measured through GFP expression. Compounds such as the PKC agonist PMA, the histone deacetylase inhibitor SAHA or the BET bromodomain inhibitor JQ1 reactivate HIV transcription and increase GFP-positive cells detected by FACS analysis. 2D10 cells are more sensitive to HIV reactivation than J-Lat 9.2 cells, though they harbor a mutation in the N-terminal sequence of Tat (H13L). 2D10 and D-HT cells were incubated for 24 hrs with PMA (10 nM), SAHA (5 μM) or JQ1 (1 μM) and GFP positive cells were detected by FACS analysis. PMA, SAHA and JQ1 reactivated HIV from 65%, 71% and 58% less D-HT cells than from control 2D10 cells, respectively. Due to the limited HIV reactivation by SAHA and JQ1 in J-Lat 9.2 cells, we only treated them with PMA (100 nM), which induced a 12% increase in GFP expression.

[3] = system: HIV reactivation in J-Lat 9.2 cells; test: HIV reactivation in J-Lat 9.2 latent infection model, FACS of GFP positive cells; conditions: PMA 100 nM
Description: as §1
as §2, with “PMA, SAHA and JQ1 reactivated HIV from 65%, 71% and 58% less D-HT cells than from control 2D10 cells, respectively. Due to the limited HIV reactivation by SAHA and JQ1 in J-Lat 9.2 cells, we only treated them with PMA (100 nM), which induced a 12% increase in GFP expression.” left out

B1: HT1 (protein)
chain: KKKHRRRPSKKKRHWKPYYKLTWEEKKKFDEKQSLRASRIRAEMFAKGQPVAPYNTTQFLMDDHDQEEPDLVDMEPVDPYLEPWKHPGSQPRTACNNCYCKKCCFHCYACFTRKGLGISYG
modifications: left off: small tags and cut ends
expression level of HEXIM1 protein and mRNA [1]: did not change
p24 concentration in supernatant (HIV-1 NL43; C-HT cells): 5.1
p24 concentration in supernatant (HIV-1 NL43; MO-HT cells): 12 ng/mL
p24 concentration in supernatant (HIV-1 NL43; MT-HT cells): 1.3 ng/mL
fewer cells with reactivated HIV (GFP positive) than control 2D10 cells ([2]; JQ1 1 μM): 58%
fewer cells with reactivated HIV (GFP positive) than control 2D10 cells ([2]; PMA 10 nM): 65%
fewer cells with reactivated HIV (GFP positive) than control 2D10 cells ([2]; SAHA 5 μM): 71%
decrease of GFP expression in L-HT compared to J-Lat 9.2 [3]: 94%
